{"source": "patent US10100120B2", "about": "“Antibody which specifically binds to human CRTH2” (KYOWA HAKKO KIRIN CO., LTD, priority 2015, dated 2018)", "molecules": {"B1": {"name": "LV0HV1: humanized Lym2 antibody, VL LV0 (SEQ ID NO: 33), VH HV1 (SEQ ID NO: 51) (antibody, V domains shown)", "VH": "EVQLVESGGGVVQPGRSLRLSCAASGFTFSNYYMAWVRQAPGKGLEWVATISYDGSSTYYRDSVKGRFTISRDNAKNSLYLQMNSLRAEDTATYYCARHRGYYYSGAGYFDYWGQGTMVTVSS", "VL": "DIVMTQTPLSLPVTPGESASISCRSSQSLEYSDGYTYLEWYLQKPGQSPQVLIYGVSNRFSGVPDRFSGSGSGTDFTLKISRVEAEDVGVYYCFQATHDPLTFGQGTKLEIK"}}, "key": {"[1]": {"target": "T1, human CRTH2 (Homo sapiens, UniProt Q9Y5Y4)", "T1 construct": "expressed in transfected cells", "T1 sequence (Q9Y5Y4 1-395)": "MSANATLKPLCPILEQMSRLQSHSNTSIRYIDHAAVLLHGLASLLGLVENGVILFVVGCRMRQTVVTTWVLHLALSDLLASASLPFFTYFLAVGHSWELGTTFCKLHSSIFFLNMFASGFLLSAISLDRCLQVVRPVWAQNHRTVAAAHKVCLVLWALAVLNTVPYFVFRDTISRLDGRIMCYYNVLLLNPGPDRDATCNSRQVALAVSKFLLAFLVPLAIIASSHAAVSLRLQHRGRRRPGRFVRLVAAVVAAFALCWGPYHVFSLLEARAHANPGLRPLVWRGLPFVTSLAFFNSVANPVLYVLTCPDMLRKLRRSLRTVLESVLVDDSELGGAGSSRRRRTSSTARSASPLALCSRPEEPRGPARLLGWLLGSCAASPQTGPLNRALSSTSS", "experiment": "ELISA reactivity against membrane fractions of human CRTH2-expressing CHO/DG44 cells with GTPγS or GDP treatment", "type": "binding", "details": "HRP-labeled antibody, FIG. 19", "experimental": "Humanized Lym2 antibody LV0HV1 and hu19A2 v52 were directly labeled with HRP using Peroxidase Labeling Kit-NH2 (Dojindo Molecular Technologies, Inc.) according to the attached document and diluted to 1 mg/mL with D-PBS (−) (NACALAI TESQUE, Inc.).\nThe human CRTH2-expressing CHO/DG44 cells established in Example 1 were peeled using 0.02% EDTA solution (NACALAI TESQUE, Inc.) and the cells were washed with D-PBS (−) cooled to 4° C. The membrane fractions were prepared using Minute Plasma Membrane Protein Isolation Kit (Invent Biotechnologies) according to the attached document.\n50 mM Tris-HCl buffer pH 7.4 (NACALAI TESQUE, Inc.) to which 50 mM HEPES (GIBCO Inc.), 5 mM MgCl2 (NACALAI TESQUE, Inc.), 100 mM NaCl (NACALAI TESQUE, Inc.), and 1 mM EDTA (Invitrogen) were added (hereinafter, referred to as an ELISA reaction solution) was added to the membrane fractions prepared in (2) to have a concentration of 1 mg/mL, and the mixture was added to PROTEOSAVE 1.5 mL Microtubes (Sumitomo Bakelite Co., Ltd.) at 50 μL/tube.\nNext, an ELISA reaction solution to which 500 μM GTPγS (Roche Diagnostics K.K.) or 500 μM GDP (Sigma-Aldrich Co. LLC) was added was added to the microtubes at 50 μL/tube for incubation at 30° C. for 1 hour. […]\nThe absorbance at 480 nm was measured by SPECTRA max 340PC and the obtained result was analyzed using Graphpad Prism (ver. 6.05). […]"}, "[2]": {"tested_on": "cynomolgus monkey CRTH2", "sequence (as listed by the source)": "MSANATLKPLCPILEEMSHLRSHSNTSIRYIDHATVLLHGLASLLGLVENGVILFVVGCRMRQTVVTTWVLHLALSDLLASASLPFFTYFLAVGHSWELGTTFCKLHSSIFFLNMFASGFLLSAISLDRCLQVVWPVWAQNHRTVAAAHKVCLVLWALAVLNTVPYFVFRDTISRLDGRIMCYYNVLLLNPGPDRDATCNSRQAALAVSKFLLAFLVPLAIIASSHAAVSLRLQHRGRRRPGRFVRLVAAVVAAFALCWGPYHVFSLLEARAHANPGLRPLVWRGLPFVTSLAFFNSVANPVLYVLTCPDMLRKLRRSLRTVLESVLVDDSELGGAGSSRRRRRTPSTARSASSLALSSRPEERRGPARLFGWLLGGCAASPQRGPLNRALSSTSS", "experiment": "Binding activity against Azami-Green fusion cynomolgus monkey CRTH2-expressing CHO/DG44 cells", "details": "2-30000 ng/mL, compared with human CRTH2; FIG. 21", "experimental": "The Azami-Green fusion human CRTH2-expressing CHO/DG44 cells and the cynomolgus monkey CRTH2-expressing CHO/DG44 cells established in Example 24 were peeled using 0.02% EDTA solution (NACALAI TESQUE, Inc.), washed with PBS, and suspended with SM. Next, the cells were seeded in a 96-well plate such that each well had 2×10^5 cells, and humanized Lym2 antibody LV0HV1 or the anti-DNP IgG1 antibody at each of final concentrations 30000, 7500, 1875, 469, 117, 29, 7, and 2 ng/mL were added thereto to cause a reaction at 4° C. for 40 minutes.\nAfter the cells were washed three times with SM, goat anti-Human IgG alexa 647 (Molecular Probes) diluted to a concentration of 10 μg/mL with SM was added thereto at 100 μL/well to perform a reaction at 4° C. for 40 minutes. The cells were washed with SM and resuspended with 100 μL of SM, and the fluorescent intensity was measured by flow cytometry (BD Biosciences, FACS CantoII).\nThe data was analyzed by FLowJo 7.65 (Tomy Digital Biology Co., Ltd.)."}}, "data": [{"molecule": "B1", "values": [{"measurement": "reactivity with respect to membrane fractions at GDP treatment compared to GTPγS treatment", "setting": "[1]", "result": "not changed"}, {"measurement": "binding activity against monkey CRTH2", "setting": "[2]", "result": "substantially the same as each other"}]}]}
